B1: FEM1B (parent)
chain: TLAALLLNRSESDIRYLLGYVSQQ

Variants of: B1
Assay: protein stability index of a GFP-peptide fusion (GPS, HEK-293T) (PSI 1-6); higher = more stable
Details: c terminus: a fixed tail appended
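Further: lentivirally expressed fusions sorted by FACS into six bins by GFP to DsRed ratio, PSI derived from sequencing read proportions per bin multiplied by bin number.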

Protein stability index of substitutions, site by site:
L2: H 1.43; Y 2.2; V 2.68; M 2.24; E 2.01; D 2.1; P 1.93; F 2.56; R 1.84; S 1.57; C 3.06; W 2.87; A 1.7; G 2.11; T 1.77; K 1.64; N 1.89; Q 2.44
A3: V 3.73; Q 2.31; F 3.58; P 2.08; R 2.25; K 1.18; N 1.7; H 2.12; L 2.64; I 2.65; C 2.17; T 2.18; W 2.38; M 2.35; D 2; E 2.92; G 2.15
N8: D 3.63; F 2.45; C 4.47; A 2.48; S 2.67; Q 3.3; T 2.38; G 2.04; H 2.92; M 4.03; W 4.75; K 4.32; R 3; I 1.53
L5: M 3.24; H 2.62; A 2.03; Q 3.07; W 2.25; T 2.71; R 3.37; K 1.44; S 2.6; I 3.24; N 1.76; Y 3.74; C 2.4; D 2.45; V 3.12; E 2.14; P 1.79; G 1.12; F 5.25
A4: N 2.53; T 2.35; W 2.28; D 2.37; G 1.68; Q 2.05; H 2.97; V 2.42; Y 3.38; S 3.29; C 2.3; E 2.94; P 2.09; F 3.05; M 1.5; I 2.37; K 2.59; R 3.48
S10: K 2.28; W 3.07; Y 2.41; I 3.57; L 3.05; P 3.81; E 3.2; C 2.4; F 3.1; Q 4.48; G 1.53; A 3.37; N 2.29; V 1.87; H 4.65; M 1.87
R9: F 2.9; N 2.57; Q 1.96; W 2.79; T 2.94; D 2.9; K 1.96; C 2.13; I 3.29; V 2.67; E 1.98; P 1.92; L 3.24; S 2.7; Y 2.52; G 3.4; H 1.58
L6: E 1.7; D 2.5; V 2.22; K 2.37; G 1.97; A 2.12; Q 1.38; M 2.56; N 1.8; T 1.76; S 1.82; F 2.65; P 2.21; I 2.88; H 1.85; R 1.76; C 1.21
L7: S 1.31; Y 1.28; N 1.95; E 1.42; D 1.97; Q 1.79; H 1.7; A 2.03; K 2.38; P 1.3; W 2.28; M 2.58; C 2.03; F 2.56; R 1.78; G 1.79
T1: C 3.15; A 2.5; W 1.93; K 2.89; N 2.8; I 3.74; L 1.72; Y 3.91; Q 1.85; E 2.21; M 3.36; P 2.1; S 2.98; G 2.61; D 1.66
